T1: Abz-VDVADAA-Dap (Dnp)
T1 chain: VDVADAA

T2: Abz-VDVADPA-Dap (Dnp)
T2 chain: VDVADPA

T3: Abz-VDVADIA-Dap (Dnp)
T3 chain: VDVADIA

T4: Abz-VDVADYA-Dap (Dnp)
T4 chain: VDVADYA

T5: Abz-VDVADRA-Dap (Dnp)
T5 chain: VDVADRA

T6: Abz-VDVADCA-Dap (Dnp)
T6 chain: VDVADCA

T7: Abz-VDVADQA-Dap (Dnp)
T7 chain: VDVADQA

T8: Abz-VDVADWA-Dap (Dnp)
T8 chain: VDVADWA

T9: Abz-VDVADFA-Dap (Dnp)
T9 chain: VDVADFA

T10: Abz-VDVADKA-Dap (Dnp)
T10 chain: VDVADKA

T11: Abz-VDVADHA-Dap (Dnp)
T11 chain: VDVADHA

T12: Abz-VDVADMA-Dap (Dnp)
T12 chain: VDVADMA

T13: Abz-VDVADSA-Dap (Dnp)
T13 chain: VDVADSA

T14: Abz-VDVADEA-Dap (Dnp)
T14 chain: VDVADEA

T15: Abz-VDVADLA-Dap (Dnp)
T15 chain: VDVADLA

T16: Abz-VDVADVA-Dap (Dnp)
T16 chain: VDVADVA

T17: Abz-VDVADGA-Dap (Dnp)
T17 chain: VDVADGA

T18: Abz-VDVADNA-Dap (Dnp)
T18 chain: VDVADNA

T19: Abz-VDVADTA-Dap (Dnp)
T19 chain: VDVADTA

T20: Abz-VDVADDA-Dap (Dnp)
T20 chain: VDVADDA

B1: 6H_cpCasp2_S9_E105V (protein)
chain: MHHHHHHGKNHAGSPGCEESAAGKEKLPKMRLPTRSDMICGYACLKGTAAMRNTKRGSWYIEALAQVFSERACDMHVADMLVKVNALIKDREGYAPGTEFHRCKVMSEYCSTLCRHLYLFPGHPPTGSGPVCLQVKPCTPEFYQTHFQLAYRLQSRPRGLALVLSNVHFTGEKELEFRSGGDVDHSTLVTLFKLLGYDVHVLCDQTAQEMQEKLQNFAQLPAHRVTDSCIVALLSHGVEGAIYGVDGKLLQLQEVFQLFDNANCPSLQNKPKMFFIQACRGDETDRGVDQQD
B2: cp caspase-2 (6H_cpCasp2D) (protein)
chain: B1 chain with V105E
B3: 6H_cpCasp2_G171D (protein)
chain: B1 chain with V105E, G171D
B4: T7AC_6H_mS9ProE (protein)
chain: MLEDPERNKERKEAELQAQTAEQHHHHHHGKNHAGSPGCEESAAGKEKLPKMRLPTRSDMICGYACLKGTAAMRNTKRGSWYIEALAQVFSERACDMHVADMLVKVNALIKDREGYAPGTEFHRCKVMSEYCSTLCRHLYLFPGHPPTGSGPVCLQVKPCTPEFYQTHFQLAYRLQSRPRGLALVLSNVHFTDEKELEFRSGGDVDHSTLVTLFKLLGYDVHVLCDQTAQEMQEKLQNFAQLPAHRGTDSCIVALLSHGVEGAIYGVDGKLLQLQEVFQLFDNANCPSLQNKPKMFFIQACRGEETERGVDQQD
B5: T7AC_6H_cpCasp2D (protein)
chain: B4 chain with V127E, D193G, G247V, E304D, E307D
B6: Caspase-2 (human), recombinant, active, Enzo Life Sciences (protein)
chain: GPVCLQVKPCTPEFYQTHFQLAYRLQSRPRGLALVLSNVHFTGEKELEFRSGGDVDHSTLVTLFKLLGYDVHVLCDQTAQEMQEKLQNFAQLPAHRVTDSCIVALLSHGVEGAIYGVDGKLLQLQEVFQLFDNANCPSLQNKPKMFFIQACRGDETDRGVDQQDGKNHAGSPGCEESDAGKEKLPKMRLPTRSDMICGYACLKGTAAMRNTKRGSWYIEALAQVFSERACDMHVADMLVKVNALIKDREGYAPGTEFHRCKEMSEYCSTLCRHLYLFPGHPPT
B7: T7AC-6H-cpCasp2_sar (protein)
chain: MLEDPERNKERKEAELQAQTAEQHHHHHHGKEHMASPGCEQSAAGKEKILKMRLPTRSDMICGYACLKGTAAMRNTKRGSWYIEALTQVFSERARDMHVADMLVKVNALIKDREGYAPGTEFHRCKEMSEYSSTLCRHLYLFPGHPPTGSGPPSLQVKPCTSEFYRTHHHLAYRLQSRPRGLALVLSNVHFNGEKDLEFRSGGDVDHSSLVTLFKLLDYDVHVLRDQTAQEMYEKLQRFAQLSTHQNTDSCVVALLSHGIEGGIYGVDGQLLQLQEVFQLFDNANCPNLQNKPKMFFIQACRGDETDRGVDLRD
B8: T7AC-6H-cpCasp2_sar_E105V, E172V (protein)
chain: B7 chain with E127V, E194V
B9: wt caspase-2 (human, produced in E. coli with poly-his-tag) (protein)
chain: GPVCLQVKPCTPEFYQTHFQLAYRLQSRPRGLALVLSNVHFTGEKELEFRSGGDVDHSTLVTLFKLLGYDVHVLCDQTAQEMQEKLQNFAQLPAHRVTDSCIVALLSHGVEGAIYGVDGKLLQLQEVFQLFDNANCPSLQNKPKMFFIQACRGDETDRGVDQQDGKNHAGSPGCEESDAGKEKLPKMRLPTRSDMICGYACLKGTAAMRNTKRGSWYIEALAQVFSERACDMHVADMLVKVNALIKDREGYAPGTEFHRCKEMSEYCSTLCRHLYLFPGHPPTHHHHHH

We go through nine proteins from patent US20220380739.

Positions count from the first letter of the chain named. Names may count otherwise.

6H-GSG-VDVAD-TNFalpha, sequence (chain, as listed by the source): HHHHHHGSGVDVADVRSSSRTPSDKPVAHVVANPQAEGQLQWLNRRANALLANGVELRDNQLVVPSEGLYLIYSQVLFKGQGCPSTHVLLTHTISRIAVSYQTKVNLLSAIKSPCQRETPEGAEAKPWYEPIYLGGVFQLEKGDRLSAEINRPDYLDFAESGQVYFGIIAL

The target in one series is T1, Abz-VDVADAA-Dap (Dnp).
As a reminder, the KM is the substrate concentration at which the rate is half of its maximum. Take B1: the Michaelis-Menten constant (KM) was 110 µM.

For B2, the KM stood at 89 µM.

For the protein B3, the KM came to 120 µM.

Regarding B4, the Michaelis-Menten constant (KM) amounted to 110 µM.

With B5, the KM was determined as 120 µM.

A further series concerns the target 6H-GSG-VDVAD-TNFalpha.
B4: the KM was determined as 520 µM.

Regarding B5, the KM was 280 µM.

A further series addresses T2, Abz-VDVADPA-Dap (Dnp).
B1: the KM came out at 250 µM.

With B2, the Michaelis constant (KM) amounted to 300 µM.

For the protein B3, the Michaelis constant (KM) was 390 µM.

For the protein B4, the KM was found to be 120 µM.

Consider B5, for which the Michaelis-Menten constant (KM) was 150 µM.

A further series addresses T3, Abz-VDVADIA-Dap (Dnp).
On to B1, for which the KM amounted to 70 µM.

Consider B2, for which the KM was 71 µM.

For the protein B3, the Michaelis-Menten constant (KM) turned out to be 78 µM.

As for B4, the Michaelis-Menten constant (KM) came out at 130 µM.

For B5, the KM turned out to be 62 µM.

Another series deals with T4, Abz-VDVADYA-Dap (Dnp).
With B1, the Michaelis constant (KM) came to 340 µM.

As for B2, the KM is 340 µM.

B3: the KM is 350 µM.

Consider B4, for which the Michaelis-Menten constant (KM) came out at 420 µM.

In the case of B5, the KM worked out at 300 µM.

The target of another series is T5, Abz-VDVADRA-Dap (Dnp).
B1: the KM was found to be 48 µM.

As for B2, the Michaelis-Menten constant (KM) amounted to 58 µM.

Regarding B3, the KM is 65 µM.

Turning to B4, the KM was found to be 68 µM.

For B5, the KM came out at 56 µM.

Another series has as its target DEVD-E2.
As to B6, the “cleavage of DEVD-E2 compared with VDVAD-E2” value was “cleaved DEVD-E2 only 44 times slower than VDVAD-E2”.

For B2, the “cleavage of DEVD-E2 compared with VDVAD-E2” value was “processed 140 times slower than VDVAD-E2”.

Another series has as its target T6, Abz-VDVADCA-Dap (Dnp).
As for B2, the KM was found to be 38 µM.

The target of the next series is T7, Abz-VDVADQA-Dap (Dnp).
Regarding B7, the KM amounted to 94 µM.

With B8, the KM amounted to 120 µM.

Turning to B1, the KM came out at 130 µM.

B2: the KM turned out to be 120 µM.

Turning to B3, the KM was found to be 160 µM.

Consider B4, for which the Michaelis constant (KM) worked out at 120 µM.

In the case of B9, the KM worked out at 110 µM.

The target in another series is T8, Abz-VDVADWA-Dap (Dnp).
As for B1, the KM amounted to 51 µM.

For the protein B2, the KM worked out at 46 µM.

For B3, the Michaelis-Menten constant (KM) was determined as 56 µM.

Regarding B4, the KM came out at 56 µM.

Consider B5, for which the KM came to 36 µM.

Another series deals with T7AC-6H-GSG-VDVAD-hFGF-2.
Turning to B2, the KM came out at 639 µM.

Take B4: the KM turned out to be 298 µM.

B5: the Michaelis-Menten constant (KM) was 881 µM.

The target of another series is T9, Abz-VDVADFA-Dap (Dnp).
Consider B7, for which the KM stood at 44 µM.

Consider B8, for which the KM worked out at 52 µM.

For the protein B1, the Michaelis constant (KM) was 77 µM.

Take B2: the KM was found to be 60 µM.

As for B3, the Michaelis-Menten constant (KM) was found to be 86 µM.

For the protein B4, the KM was 80 µM.

On to B9, for which the KM stood at 79 µM.

The target in another series is T10, Abz-VDVADKA-Dap (Dnp).
Turning to B1, the KM is 97 µM.

In the case of B2, the Michaelis-Menten constant (KM) was 120 µM.

In the case of B3, the KM came out at 94 µM.

As to B4, the KM was determined as 92 µM.

As to B5, the KM is 110 µM.

A further series concerns the target T11, Abz-VDVADHA-Dap (Dnp).
B1: the KM came to 160 µM.

Regarding B2, the KM was 120 µM.

Turning to B3, the Michaelis constant (KM) was determined as 170 µM.

On to B4, for which the Michaelis-Menten constant (KM) came out at 160 µM.

For the protein B5, the KM is 110 µM.

A further series has as its target T12, Abz-VDVADMA-Dap (Dnp).
With B1, the KM was 830 µM.

As for B2, the Michaelis constant (KM) was found to be 380 µM.

Turning to B3, the KM was found to be 610 µM.

With B4, the Michaelis constant (KM) was found to be 370 µM.

Turning to B5, the KM turned out to be 340 µM.

The next series concerns the target T13, Abz-VDVADSA-Dap (Dnp).
For B1, the Michaelis-Menten constant (KM) came out at 200 µM.

For the protein B2, the KM turned out to be 200 µM.

As for B3, the KM came to 220 µM.

In the case of B4, the KM was 120 µM.

As for B5, the KM is 130 µM.

Another series addresses T14, Abz-VDVADEA-Dap (Dnp).
B1: the KM was found to be 180 µM.

Turning to B2, the KM worked out at 170 µM.

For the protein B3, the KM worked out at 210 µM.

Turning to B4, the Michaelis constant (KM) stood at 110 µM.

With B5, the KM came out at 200 µM.

For a further series, the target named is T15, Abz-VDVADLA-Dap (Dnp).
Consider B1, for which the KM was determined as 300 µM.

B2: the KM came to 290 µM.

On to B3, for which the Michaelis-Menten constant (KM) is 300 µM.

Take B4: the Michaelis constant (KM) was determined as 410 µM.

For B5, the Michaelis constant (KM) was 160 µM.

In a further series the target is T16, Abz-VDVADVA-Dap (Dnp).
In the case of B7, the Michaelis-Menten constant (KM) was determined as 34 µM.

As for B8, the KM stood at 69 µM.

Take B1: the Michaelis constant (KM) came to 81 µM.

For the protein B2, the Michaelis constant (KM) worked out at 64 µM.

In the case of B3, the KM was 96 µM.

As to B4, the KM was 90 µM.

As to B9, the KM was 86 µM.

The next series has as its target T17, Abz-VDVADGA-Dap (Dnp).
For the protein B7, the Michaelis constant (KM) is 48 µM.

Take B8: the KM is 31 µM.

On to B1, for which the KM amounted to 57 µM.

Take B2: the KM came to 110 µM.

For the protein B3, the Michaelis-Menten constant (KM) was determined as 75 µM.

Consider B4, for which the KM stood at 43 µM.

Regarding B9, the Michaelis constant (KM) worked out at 97 µM.

A further series deals with T18, Abz-VDVADNA-Dap (Dnp).
Turning to B1, the KM was 100 µM.

For B2, the KM was 78 µM.

As to B3, the KM worked out at 110 µM.

Turning to B4, the Michaelis constant (KM) is 120 µM.

For B5, the KM was 87 µM.

Another series has as its target T19, Abz-VDVADTA-Dap (Dnp).
Regarding B1, the KM came out at 150 µM.

With B2, the Michaelis-Menten constant (KM) stood at 75 µM.

As to B3, the KM was found to be 140 µM.

Consider B4, for which the KM amounted to 100 µM.

For the protein B5, the KM turned out to be 89 µM.

Another series has as its target T20, Abz-VDVADDA-Dap (Dnp).
On to B1, for which the KM worked out at 200 µM.

As for B2, the Michaelis constant (KM) turned out to be 160 µM.

Consider B3, for which the KM was 150 µM.

For the protein B4, the Michaelis constant (KM) was 150 µM.

On to B5, for which the KM was found to be 180 µM.
